Laboratory results: publication doi:10.1101/2020.10.15.340570, “Coordination of RNA and protein condensation by the P granule protein MEG-3”

Target: T1, MEG-3 HMGL- (Caenorhabditis elegans, UniProt Q9TXM1 1-862, F705A;Y708A;Y713A;N725A)
T1 sequence: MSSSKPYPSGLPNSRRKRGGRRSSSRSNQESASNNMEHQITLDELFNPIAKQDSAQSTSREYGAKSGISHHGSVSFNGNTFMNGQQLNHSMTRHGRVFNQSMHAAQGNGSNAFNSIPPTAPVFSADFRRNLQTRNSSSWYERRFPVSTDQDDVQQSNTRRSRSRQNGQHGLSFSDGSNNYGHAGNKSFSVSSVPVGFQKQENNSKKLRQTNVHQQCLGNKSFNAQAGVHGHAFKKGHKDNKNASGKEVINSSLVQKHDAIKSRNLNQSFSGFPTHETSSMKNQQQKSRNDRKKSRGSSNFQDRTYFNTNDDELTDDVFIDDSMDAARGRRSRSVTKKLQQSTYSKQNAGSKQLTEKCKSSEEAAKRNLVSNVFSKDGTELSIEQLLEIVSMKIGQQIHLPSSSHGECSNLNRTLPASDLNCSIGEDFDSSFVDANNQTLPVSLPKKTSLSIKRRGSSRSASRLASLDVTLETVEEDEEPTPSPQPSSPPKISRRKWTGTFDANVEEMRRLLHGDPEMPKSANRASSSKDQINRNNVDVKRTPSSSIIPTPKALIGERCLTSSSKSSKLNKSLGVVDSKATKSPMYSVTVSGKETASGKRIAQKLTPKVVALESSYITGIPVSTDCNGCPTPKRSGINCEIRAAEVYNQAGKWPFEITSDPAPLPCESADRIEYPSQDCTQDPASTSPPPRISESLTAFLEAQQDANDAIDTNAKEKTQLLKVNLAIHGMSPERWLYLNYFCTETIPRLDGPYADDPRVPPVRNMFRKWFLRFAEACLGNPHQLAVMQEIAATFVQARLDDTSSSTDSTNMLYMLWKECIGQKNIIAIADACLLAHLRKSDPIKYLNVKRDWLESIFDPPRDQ
Test: filter binding; high affinity, similar to wild type; Kd only in figure; 50 nM RNA, 3.75 mM HEPES (stock pH 7.4), 150 mM NaCl, 0.9 mM beta-mercaptoethanol, 1.5% glycerol, 10 mM Tris HCl, 30 min, room temperature
Conditions: protein: recombinant; tags: N-terminal 6xHis (pET28a); label: 3' fluorescein; single strand

UUUUUUUUUUUUUUUUUUUUUUUUUUUUUU (ssRNA) [30U RNA (poly-U30)]
binding result: binds
